Data on 15 molecules can be found in patent publication US20230088461A1 (NANJING LEGEND BIOTECH, published 2023).

Like-named read-outs stand apart in the source and are kept apart here.

For one assay, the target named is T1, recombinant human GPC3 (human, UniProt P51654 25-559, limits assumed).
T1 construct: also called hGPC3
Kind of assay: SPR (Biacore), antibody as ligand, recombinant human GPC3 as analyte, 1:1 Langmuir model. A general note: Surface plasmon resonance follows binding to a sensor surface in real time, without labels.

Assay [1] addresses T2, human GPC3 on SK-HEP-1-huGPC3 cells (human, UniProt P51654 25-554).
T2 construct: whole, on cells
In words: flow cytometry on SK-HEP-1-huGPC3 cells, PE anti-mouse IgG Fc. (A flow cytometer gives signals particle by particle.)
Experimental: (§1) The SK-HEP-1-huGPC3 cells and SK-HEP-1-cmGPC3 were plated in 96-well U-bottom plates (BD) at a density of 1×10⁵ cells/well. The purified antibodies were diluted in the staining buffer and incubated with cells for 1 hour at 4° C. The cells were then washed twice with staining buffer (BSA/1×PBS). PE-conjugated goat anti-mouse IgG Fc antibody was added and incubated at 4° C. in the dark for 30 minutes. The cells were then washed twice and re-suspended in 100 μL staining buffer. The fluorescence intensity was measured by flow cytometry and analyzed by FlowJo.

Assay [2] concerns the target T3, cynomolgus monkey GPC3 on SK-HEP-1-cmGPC3 cells (cynomolgus monkey, UniProt A0A2K5VK50 24-553).
T3 construct: whole, on cells
Kind of assay: flow cytometry on SK-HEP-1-cmGPC3 cells, PE anti-mouse IgG Fc.
Experimental: as §1

In assay [3] the target is T4, mouse GPC3 on SK-HEP-1-muGPC3 cells (mouse, UniProt Q8CFZ4 25-553).
T4 construct: whole, on cells
T4 sequence (Q8CFZ4 25-553 limits assumed): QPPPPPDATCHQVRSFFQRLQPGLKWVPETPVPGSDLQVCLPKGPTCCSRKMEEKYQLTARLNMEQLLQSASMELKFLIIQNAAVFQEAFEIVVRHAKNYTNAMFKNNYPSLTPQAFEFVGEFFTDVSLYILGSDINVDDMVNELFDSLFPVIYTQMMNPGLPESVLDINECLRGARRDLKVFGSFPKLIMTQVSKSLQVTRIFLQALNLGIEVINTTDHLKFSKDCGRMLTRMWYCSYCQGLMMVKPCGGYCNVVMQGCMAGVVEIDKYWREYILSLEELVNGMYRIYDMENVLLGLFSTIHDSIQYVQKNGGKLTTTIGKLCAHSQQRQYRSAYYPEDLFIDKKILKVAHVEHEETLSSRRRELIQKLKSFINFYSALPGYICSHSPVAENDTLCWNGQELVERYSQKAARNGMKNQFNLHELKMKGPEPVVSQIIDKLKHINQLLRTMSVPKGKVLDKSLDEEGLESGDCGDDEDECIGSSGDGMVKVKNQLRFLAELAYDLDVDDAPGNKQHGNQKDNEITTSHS
Kind of assay: flow cytometry on SK-HEP-1-muGPC3 cells, PE anti-mouse IgG Fc.
Experimental: as §1

Assay [4] concerns the target T5, GPC3 (analyte of Tables 9 and 10) (UniProt P51654 25-559, limits assumed). Kind of assay: SPR (Biacore T200), purified antibody captured through Fc, GPC3 as analyte, 1:1 model.
Experimental: (§2) Antibodies were immobilized on the sensor chip through Fc capture method. GPC3 was used as the analyte. The surface was regenerated before the injection of another antibody. The process was repeated until all antibodies are analyzed. The off-rates of antibodies were obtained from fitting the experimental data locally to 1:1 interaction model using the Biacore T200 evaluation software. The data of dissociation (kd) and association (ka) rate constants (KD) were calculated from the ration of kd over ka.
In assay [5] the target is T5, GPC3 (analyte of Tables 9 and 10). The description is as above. The source holds these as a separate data set.
Experimental: as §2

Experimental for recombinant human GPC3: The binding kinetics of the antibodies to recombinant human GPC3 were measured by the surface plasmon resonance (SPR) (e.g., Biacore). Binding rate (Kₐ) and dissociation rates (Kd) were calculated using a simple one-to-one Langmuir binding model (Biacore Evaluation Software). The equilibrium dissociation constant (KD) is calculated as the ratio Kd/Kₐ.

B1: LAb19301 (antibody, V domains shown)
VH: DVQLQESGPDLVKPSQSLSLTCTVTGYSITSGFSWHWIRQFPGHKLEWMGFMQYSGNTNYNPSLKSRISFTRDTSKNQFFLQLKSVTPEDTATYYCARREEGAWFAYWGQGTLVTVSA
VL: DVVMTQTPLSLPVSLGDQASISCGSSQSLVHSNGNTYLHWYLQKPGQSPKLLIYKVSNRFSGVPDRFSGSGSGTDFTLKISRVEAEDLGVYFCSQSTHFPFTFGSGTKLEIK
notes: Mouse monoclonal antibody purified from hybridoma supernatant
With B1, in the assay with recombinant human GPC3, the dissociation constant Kd (as a rule, a measure of binding affinity in units of concentration) stood at 122 nM; the koff (in general, the first-order rate constant of dissociation) came out at 0.00207 s⁻¹; the kon (usually a measure of how fast the partners come together) is 16900 M⁻¹ s⁻¹. The “Positive population, %” value in assay [1] was determined as 72.6%. Also, the “Positive population, %” value in assay [2] came to 18.5%. The “Positive population, %” value in assay [3] was determined as 17.5%.

B2: LAb19306 (antibody, V domains shown)
VH: EVQLVESGGGLVKPGGSLKLSCAASGFAFSTYDMSWVRQTPERRLEWVAYISSGGATTYYPDSVKGRFTISRDNAKNTLYLQMSSLKSEDTAMYYCARLSLMIRGWFAYWGQGTLVTVSA
VL: DVVMTQTPLSLPVSLGDQASISCRSSQSLVHSNGNTYLHWYLQKPGQSPKLLIYKVSNRFSGVPDRFSGSGSGTDFTLKISRVEAEDLGVYFCSQSTHVPYTFGGGTKLEIK
notes: as for B1
As to B2, in the assay with recombinant human GPC3, the dissociation constant (Kd) came to 28.4 nM, the koff was 0.00077 s⁻¹ and the kon was 27100 M⁻¹ s⁻¹. The “Positive population, %” value in assay [1] turned out to be 86.2%. Also, the “Positive population, %” value in assay [2] is 3.32%. Also, in assay [3], the “Positive population, %” value worked out at 75.8%.

B3: LAb19308 (antibody, V domains shown)
VH: EVQLVESGGGLVKPGGSLKLSCAASGFAFITYGMSWVRQTPEKRLEWVAYISSGGANTYYPDSVKGRFTISRDNAKNTLYLQMSSLKSEDTAMYYCASLSTLVRGWFAYWGQGTLVTVSA
VL: DVVMTQTPLSLPVSLGDQASISCRSSQSLVHSNGNTYLHWYLQKPGQSPKLLIYKVSNRFSGVPDRFSGSGSGTDFTLKISRVEAEDLGVYFCSQSTHVPYTFGGGTKLEIK
notes: as for B1
B3: in the assay with recombinant human GPC3, the dissociation constant (Kd) came out at 41.4 nM, the koff is 0.00102 s⁻¹ and the kon was determined as 24700 M⁻¹ s⁻¹. Moreover, in assay [1], the “Positive population, %” value was 91.4%. Moreover, the “Positive population, %” value in assay [2] was 9.55%. In addition, in assay [3], the “Positive population, %” value worked out at 82.4%.

B4: LAb19302 (antibody, V domains shown)
VH: AVQLVESGGGLVRPGGSLKLSCAASGFAFSTYGMSWVRQTPETRLEWVAYISSGGATTYYPDSVKGRFTISRDNAKNTLYLQMSSLKSEDTAMYYCASLSIMIRGWFAYWGQGTLVTVSA
VL: DVVMTQTPLSLPVSLGDQASISCRSSQSLVHSNGNTYLHWYLQKPGQSPKVLIYKVSNRFSGVPDRFSGSGSGTDFTLKISRVEAEDLGVYFCSQSTHVPYTFGGGTKLEIK
notes: as for B1
Take B4: in the assay with recombinant human GPC3, the equilibrium dissociation constant (Kd) worked out at 71.2 nM, the koff stood at 0.00184 s⁻¹ and the on-rate constant (kon) was 25800 M⁻¹ s⁻¹. Also, the “Positive population, %” value in assay [1] was determined as 91.5%. Moreover, the “Positive population, %” value in assay [2] was 12.3%. For the same molecule, in assay [3], the “Positive population, %” value worked out at 81.8%.

B5: Chimeric LAb19309-hIgG1 (antibody, V domains shown)
VH: QVQLQQSGAELVRPGASVTLSCKASGYTFTDYEMHWVKQTPVHGLEWIGGIDPETGNTAYSQKFKGKATLTADKSSSTAYMEVRSLTSEDSAVYYCTRYYSFAYWGQGTLVTVSA
VL: DVLMTQTPLSLPVNLGDQASISCRSSQTIVHSNGNTYLEWYLQKPGQSPKLLIYKVSNRFSGVPDRFSGSGSGTDFTLRISRVEAEDLGVYYCFQVSHVPYTFGGGTKLEIKR
notes: The mouse VH/VL numbers follow the parallel order of the lists, as for LAb19309
As to B5, in assay [4], the dissociation constant Kd worked out at 3.56 nM, the koff came out at 0.000239 s⁻¹ and the kon was 67100 M⁻¹ s⁻¹.

B6: LAb19304 (antibody, V domains shown)
VH: QVQLQQSGAELVRPGASVTLSCKASGYTFTAYEMHWVKQTPVHGLEWIGGIDPETGNTAYSQKFKGKATLTADKSSSTAYMEVRSLTSEDSAVYYCSRYYSFAYWGQGTLVTVSA
VL: DVLMTQTPLSLPVSLGDQASISCRSSQTIVHSNGNTYLEWYLQKPGQSPKLLIYKVSNRFSGVPDRFSGSGSGTDFTLKISRVEAEDLGVYYCFQVSHVPYTFGGGTKLEIK
notes: as for B1
Regarding B6, in the assay with recombinant human GPC3, the dissociation constant Kd is 5.11 nM, the off-rate constant (koff) was 0.000138 s⁻¹ and the on-rate constant (kon) was 27000 M⁻¹ s⁻¹. Besides, the “Positive population, %” value in assay [1] worked out at 91.9%. Also, the “Positive population, %” value in assay [2] came to 94.6%. For the same molecule, the “Positive population, %” value in assay [3] worked out at 25.6%.

B7: LAb19303 (antibody, V domains shown)
VH: QVQLQQSGAELVRPGASVTLSCEASGYTFNDYEMHWVKQTPVHGLEWIGAIDPETGATAYNQKFKGKATLTADKSSSTAYMELRSLTSEDTAVYYCTRYYSFAYWGQGTLVTVSA
VL: DVLMTQTPLSLPVSLGDQASISCRSSQSFVHSNGNTYLQWYLQKPGQSPKLLIYKVSNRFSGVPDRFSGSGSGTDFTLKISRVEAEDLGVYYCFQGSHVPYTFGGGTKLEIK
notes: as for B1
Take B7: the “Positive population, %” value in assay [3] came out at 0.72%.

B8: LAb19305 (antibody, V domains shown)
VH: QVQLQQSGAELVRPGASVTLSCKASGYTFTAYEMHWVKQTPVYGLEWIGGIDPETGNTAYSQNFKGKATLTADKSSSTAYMEVRSLTSEDSAVYYCSRYYSFAYWGQGTLVTVSA
VL: DVLMTQTPLSLPVSLGDQASISCRSSQTIVHSNGNTYLEWYLQKPGQSPKLLIYKVSNRFSGVPDRFSGSGSGTDFTLKISRVEAEDLGVYYCFQVSHVPYTFGGGTKLEIK
notes: as for B1
Consider B8, for which, in the assay with recombinant human GPC3, the Kd came to 4.19 nM, the koff worked out at 0.00013 s⁻¹ and the on-rate constant (kon) worked out at 31100 M⁻¹ s⁻¹. Besides, in assay [1], the “Positive population, %” value amounted to 92.6%. For the same molecule, the “Positive population, %” value in assay [2] was found to be 94.2%. For the same molecule, the “Positive population, %” value in assay [3] came to 17%.

B9: Chimeric LAb19305-hIgG1 (antibody, V domains shown)
VH: QVQLQQSGAELVRPGASVTLSCKASGYTFTAYEMHWVKQTPVYGLEWIGGIDPETGNTAYSQNFKGKATLTADKSSSTAYMEVRSLTSEDSAVYYCSRYYSFAYWGQGTLVTVSA
VL: DVLMTQTPLSLPVSLGDQASISCRSSQTIVHSNGNTYLEWYLQKPGQSPKLLIYKVSNRFSGVPDRFSGSGSGTDFTLKISRVEAEDLGVYYCFQVSHVPYTFGGGTKLEIKR
notes: The mouse VH/VL numbers follow the parallel order of the lists, as for LAb19305
As to B9, in assay [5], the affinity, expressed as Kd, was 0.84 nM; the off-rate constant (koff) was determined as 0.000103 s⁻¹; the kon is 123000 M⁻¹ s⁻¹.

B10: 9VH1VL3-hIgG1 (antibody, V domains shown)
VH: QVQLVQSGAEVKKPGASVKVSCKASGYTFTDYEMHWVRQAPGQRLEWMGGIDPETGNTAYSQKFKGRVTITRDTSASTAYMELSSLRSEDTAVYYCARYYSFAYWGQGTLVTVSS
VL: DIVMTQSPDSLAVSLGERATINCRSSQTIVHSNGNTYLEWYQQKPGQPPKLLIYKVSNRFSGVPDRFSGSGSGTDFTLTISSLQAEDVAVYYCFQVSHVPYTFGGGTKLEIKR
notes: Humanized LAb19309, full-length human IgG1/kappa; also called 9VH1VL3-hIgG1 mAb
B10: in assay [4], binding was characterised by a dissociation constant (Kd) of 1.53 nM, the koff amounted to 0.00014 s⁻¹ and the kon was 91300 M⁻¹ s⁻¹.

B11: 5VH2VL2-hIgG1 (antibody, V domains shown)
VH: QVQLVQSGAEVKKPGASVKVSCKASGYTFTAYEMHWVRQAPGQGLEWMGGIDPETGNTAYSQNFKGRVTMTRDTSTSTVYMELSSLRSEDTAVYYCARYYSFAYWGQGTLVTVSS
VL: DIVMTQSPLSLPVTPGEPASISCRSSQTIVHSNGNTYLEWYLQKPGQSPQLLIYKVSNRFSGVPDRFSGSGSGTDFTLKISRVEAEDVGVYYCFQVSHVPYTFGGGTKLEIKR
notes: Humanized LAb19305, full-length human IgG1/kappa
Regarding B11, in assay [5], the Kd stood at 0.572 nM, the koff came to 8.91e-05 s⁻¹ and the kon amounted to 156000 M⁻¹ s⁻¹.

B12: 9VH3VL2-hIgG1 (antibody, V domains shown)
VH: QVQLVQSGAEVKKPGASVKVSCKASGYTFTDYEMHWVRQATGQGLEWMGGIDPETGNTAYSQKFKGRVTMTRNTSISTAYMELSSLRSEDTAVYYCARYYSFAYWGQGTLVTVSS
VL: DIVMTQSPLSLPVTPGEPASISCRSSQTIVHSNGNTYLEWYLQKPGQSPQLLIYKVSNRFSGVPDRFSGSGSGTDFTLKISRVEAEDVGVYYCFQVSHVPYTFGGGTKLEIKR
notes: Humanized LAb19309, full-length human IgG1/kappa; also called 9VH3VL2-hIgG1 mAb
On to B12, for which, in assay [4], the dissociation constant Kd amounted to 0.672 nM, the dissociation rate constant (koff) was determined as 9.01e-05 s⁻¹ and the on-rate (kon) was found to be 134000 M⁻¹ s⁻¹.

B13: 5VH2VL3-hIgG1 (antibody, V domains shown)
VH: QVQLVQSGAEVKKPGASVKVSCKASGYTFTAYEMHWVRQAPGQGLEWMGGIDPETGNTAYSQNFKGRVTMTRDTSTSTVYMELSSLRSEDTAVYYCARYYSFAYWGQGTLVTVSS
VL: DIVMTQSPDSLAVSLGERATINCRSSQTIVHSNGNTYLEWYQQKPGQPPKLLIYKVSNRFSGVPDRFSGSGSGTDFTLTISSLQAEDVAVYYCFQVSHVPYTFGGGTKLEIKR
notes: as for B11
In assay [5], B13 registered a dissociation constant Kd of 0.544 nM, a koff of 8.76e-05 s⁻¹ and a kon of 161000 M⁻¹ s⁻¹.

B14: 9VH3VL3-hIgG1 (antibody, V domains shown)
VH: QVQLVQSGAEVKKPGASVKVSCKASGYTFTDYEMHWVRQATGQGLEWMGGIDPETGNTAYSQKFKGRVTMTRNTSISTAYMELSSLRSEDTAVYYCARYYSFAYWGQGTLVTVSS
VL: DIVMTQSPDSLAVSLGERATINCRSSQTIVHSNGNTYLEWYQQKPGQPPKLLIYKVSNRFSGVPDRFSGSGSGTDFTLTISSLQAEDVAVYYCFQVSHVPYTFGGGTKLEIKR
notes: Humanized LAb19309, full-length human IgG1/kappa
Turning to B14, in assay [4], the affinity, expressed as Kd, was 1.13 nM; the koff came to 0.000145 s⁻¹; the on-rate constant (kon) came to 129000 M⁻¹ s⁻¹.

B15: 5VH1VL2-hIgG1 (antibody, V domains shown)
VH: QVQLVQSGAEVKKPGASVKVSCKASGYTFTAYEMHWVRQAPGQRLEWMGGIDPETGNTAYSQNFKGRVTITRDTSASTAYMELSSLRSEDTAVYYCARYYSFAYWGQGTLVTVSS
VL: DIVMTQSPLSLPVTPGEPASISCRSSQTIVHSNGNTYLEWYLQKPGQSPQLLIYKVSNRFSGVPDRFSGSGSGTDFTLKISRVEAEDVGVYYCFQVSHVPYTFGGGTKLEIKR
notes: as for B11
For the molecule B15, in assay [5], the dissociation constant Kd is 1.1 nM, the koff came out at 0.000117 s⁻¹ and the kon turned out to be 107000 M⁻¹ s⁻¹.
